Assay: label from the status in PepcDB records

Sequence	protein production
MNISLVFPPFHLQSLYNLPPLGLISLATVLGEAGHRAVIRDLVLALRQGSLGMGKELYGEAARMILRDDPDLVGFSAQCTTFPAVVRIARLLKEQKPDLRIVAGGHNVSFLDVPTLERFPWIDAVVRGEGEVTFRELAASFAVGNDPAEVAGVTWRRGTEIVRNPDRELIADLDTLPLPDYTLVPPLASYRDACGIPRSIAILEVGRGCPHRCVYCSESVMWRRRTRTFSIPRLIREMEELHGRFGAECLVLAYDQFTADRRFVEEFCNRVIDARLNRVPWYCISRLDSLDRPLLDLMREAGCESMCYGIDSGSRRTLAFIGKEIDEGILYQRVRETTEAGMVPTLSFVIGFPEEEREDIDQTLFLALKAGVQGNSAPLVQLPTVLAGTELHRRYTGRLVREVDTYFSLGLEFDHGRRLADDERLIDADPFLFSSFYNLPCAGVPLAELDRIARWFPLILNGYPKSFILLSLALGRPPSNLFREILSRLEEDGWREDDPTAETAFLERFPCHAEGLMAGSASWPHFAEILTYETLALRATHRGPPRADGAGPLKGDPAGECRPVLREEVTVSEFRRNLPAIIADLKSGIFRESYPPEPTLLIFYPSGERLEVMEINRFGKDFLLLCNGLATCEEIAATLYGEYGDAMDSGAFSEECKDALTVFTGMGLVRDGAAPAP	failed
MNIVYLLMLSLILFSIGLYGISTSNVGIKMLISLEIIINSAILAGVSISSFYFSTGVLIFVLFAIAIGVIESAVGIAILTMVYKKYGRITISLLKEIKW	failed
MNIYSLFVVAIALSLDAFGVALSIGLDSCVKRKNKLLFAISFGFFQFLCTFIGAYSGFLFNTYITYVPQIIGGMIIAFVGAFMIKEGFDNKEEKLLLNFKMYFVLGISVSIDAAVVGFTMFNKISSNYVILGDSVFIGIVTLILSIIAFIISRYLKRIQLVCKYADYIGGIILVIFGLKMMFF	failed
MNKAGARASDQETRRFGFVEWFRPGDYERAEVALPDILESGASYLRTHLSWAEYLAPGGQQWFDWLIPRIGGQIDLLPCIHYTPPSLSRTGRSSGPPVNLKSYADFVDHVLTRYGRYISHIELWNEPNNLLDWDWRHDSDFLLFCEMVGGAAYWAKQRGYKPVLGGPCPFDPYWLNLMGTRGVLGVVDAVGFHGFPGTWDSEEATWGGWDMHLGEMRGIIDRYNADAEIWITETGYSTWRNDEIEQARRFTKALKVPADRMYWYSWRDVPPDVPVQEGLWFDPRHYHLGAVSHDNKPKLLARLLTEGGVKRLEEVAALAAPNITSGAAPIIVTGGSGFVGCNLADRLLSDGEDVIILDNLARSGVDQNLSWLKERHGGRVHPVLADVRDLLGIEAAFRDAKAVFHYAAQTAVTTSLVDPLEDFETNARGTLNVLESIRRAGKRAPIIFASTNKVYGALDDLGMIELDDRYLPEDESIRTLGIGEDRPLDFCTPYGCSKGVADQYILDYAKSYGIPAAVLRMSCIYGPRQFGTEDQGWVAHFLIRALGGEPISIYGDGKQVRDILHVDDAVAAYRVLLSNIGQVSGKAFNLGGGPRNAVSVLAVLREIEELAGRPVETSFGPWRAGDQLYFVADTTRLEQETGWQAGIGWRHGLRHLAEWLIAHRFGGRQIRREKRKASA	failed
MNKALKALGVLTTFVMLIVLIGGALVTKTGSGQGCGRQWPLCHGRFFPELNPASIIEWSHRFASGISIILVLSLAFWSWRKITPIFRETTFLAIMSIIFLFLQALLGALAVVFGSNALIMALHFGISLISFASVLILTLLIFEADKSVRTLVKPLQIGKKMQFHMIGILIYSYIVVYTGAYVRHTESSLACPNVPLCSPLNNGLPTQFHEWVQMGHRAAALLLFVWIIVAAVHAITSYKDQKQIFWGWISCLIFITLQALSGIMIVYSELALGFALAHSFFIACLFGVLCYFLLLIARFRYESRQS	failed
MNKALWYVVLPALLVTVLAQRFGHLTVNFPLKSVFGGAAPAEAALHRRIALPSGFSLTVYAADLPGARMLRFTRTGDLLVSQPNAGAIVLLEKDADGDGRPDGRRQLLTGLSRPHGLDLRDGWLYVAETYGVVRVRYDAAQRQISGAPEMVVSGIPGGGNHWSRTLKFGPDGGMYVSVGSSCNVCIEDDPLRATLLRFEPDGTKREIYATGLRNTVGFDWRPGSRELYGTDNGRDLLGDDFPPCELNRIEKGGFYGWPYANGNRVPDPDYGRGHEADIRRSLPPVHEFRAHVAPLGMVFLKGGGLPQDYRGAALVALHGSWNRSKKQGYEVVSLHFGADGRIAERPFMTGFNVDEDVIGRPVDVAEGPDGAIYVSDDYAGAIYRVLYRPPVTASHD	failed
MNKFENFYKVPISYKNRKNEIYKYDNLEYNKMKYGMPEYYRCPYYMHENRNLYNTESCYTPNINVGRNSFYGKTLDPNDKICEENDSVYNILEEDHKEESFKKIECMNKEDDRKKIYNKVEKNDDENIDNKKHNYCEKYEEVYPKDRSSIKIIYNDVDQQIDHNLYDDENEIVCDNEIKKRKKRDRKVFMGKYFFSDIINTIIYPCTNKSLQKYQYGSVENMDYSLYNDIQKGQKIQKVDKIKNKKAPQIIVKF	failed
MNKFLVSLFLPLVAFANSSEAAANANLFGAFTLIPPLVAIALAFITKDVILSLFTGVLSGTFLLSLSANIFKAQHLTFVNYYNTTVESFSKIISYILGSTSDPVNAGIILQILCIGGLVALITKMGGAKAVALKFAKRAKSAVSAQVNTWFLGLLIFFDDYANLLIVGPIMRPLADKFKISREKFAFIIDSTAAPVAGIAVISTWIGLEVSLIKTAYEHIGISNISAFGIFVETIPYRFYNIFMLFFVVMTAIMRREFGSMYKAEVRARTTGQIAPLPKSGTLDTTELEDQFLAPKEGIKIRAFDAIVPIFTLIILAILGFYFNGLSTLEGEELAKASANPLSFETFRAAFGNADSSVVLFQAALFAAIVAIFIGVRRKIFNLKEAVETWIYGWKTMIFTIVLLLFAWSLSSIVKDLGTSLFITSLLADKLPEFILPATIFAFASAISFAIGTSYGTMGILMPLAVPLAHEIAKINGMDANAMHHYMVINISCVLTGAIFGNHCSPISDNVILSSMSAKCDHMEHVRTQIPYALFICGISLIAGYIPVSLGLSVWFVLPLNFILIALLLRLIGKKVP	failed
MNKITSAFIRVLRQSSSSGGTGNLLGRQLSYKSDLSLDKIYPGARLQIYTPPPPPSGSDKFSGFIPMDRLEITYSRSSGPGGQHVNTVNTKVDVRFKVAQADWIPEQTRQKLLKVLANRITKDGYFYIKSDLTRSQQMNLADALEKLRTIIRSQEAVAPAPPSEETLEKLRRRQERAVRERLQLKRGRAQVKADRQGPSGLDL	failed
MNKKILLIGGGGHCKSVLDSLLDLDEYDDIGIIDTKENVGKAVLGTPILGYDRDLPSLYKDGYHYAFVAVGSIGNPSVRIRLFNTLCEMGFIIPNIVDASAKVSKHSQIDKGVFIGKHVVVNAGAVIGQGAIINSGAIVEHDCEIGEFVHIAPGTVLCGGVKIGRHSHIGTNSTVKQGIHIGSNCLIGMGSVVTKNIRDNVIAYGNPCREVKNLLEHHHHHH	failed
MNKKILTLLVLILSISSVLMLSKSITKKSKYKIIRDYFINSNYVLVKIENKDLKFTISKPIYDKKLNNYFFKGQTTSHFLISNNVDIAINTSPYEVKQNMFFPKGLYIYNKKMISKQINNYGEIVIKHNKIILNPKEDEIENCDYGFSGFFVLIKNGKYKKNFKETRHPRTIIGTDKNNKHLFLVTIEGRGVNNSKGASLNEAIDFALSYGMTNAINLDGGGSSTLVVKSNNAPYKLNFTANIFGQERPVPFHLGIKLPN	failed
MNKLLLVAAGGAVGSVARYLVGVGAMRVMGPGWPYGTFTVNVVGGFLMGCLASWLAHRGNTSSETWRVMLGVGVLGGFTTFSSFSLETALMIQKRAYGQAFTYSAASVLLAIAALFAGLLVARKVFA	failed
MNKSSATIMAAALMLASSCTEVKQEGQGYEPIIGKQEITIKDGRLTPEALWAMGRIGSLSISPDGKQIAYTVAYYSVPENKSHHVIYVMDADGKNNTLLTQTAWNESEPQWIKGGTKIAFLCNESGGSQIWEMNPDGTERRIISDFKGNIEGFSFSPDGKKILFISQIKYGQRTVDLYPDLPKASGIIVNDLMYKHWDEWVESIPHPFIADFDGNMMGAATDIMEGEPFEAPMKPFGGIEQLAWSNDSKQIAYTSRKKQGLAYAVSTDSDIYLYNIEKGTTLNLCKPNGKDSNGTDEMKGYDTNPKFSPNGKYIAWQSMERDGYESDRNRLCIYNLDDGQKTFVTESFESGVDDYCWNNDSQSLYFVGVWHGTSMVYSANLNGDIKKLTDGMYDYGSVAMAGDKIITKRHSISAADEIYTLTPADGQVAQLSHENDHIFKQLNLGKVEERWTKTTDGKQMLSWVIYPVNFDANKKYPTLLFCEGGPQSPVSQFWSYRWNFQIMAANDYIIIAPNRRGLPGFGMEWLEQISGDYGGQCMKDYLSAIDDISKEPYVDTNRLGCVGASFGGFSVYWLAGHHDKRFKAFIAHDGIFNMEQQYLETEEMWFANWDMGGAYWDKNNATAQRTFANSPHRFVDKWDTPILCIHGEKDYRILASQGMSAFNAAVLRGVPAELLLYPDENHWVLKPQNGVLWQRTFFSWLDKWLK	failed
MNLASIIGWGVGFGAILISMAFTPTGLGVFWDLSSVFITVVGSFSALMASSEVVAVKKIPTYLGFFFRRNSYAKVSIIKILVELSEKARKEGLLSLDDELEQINDPFFKSGMRLVVDGADPEVIRTMLYLELDQMQERHKVGSDLFKTWAKLAPAFGMTGTLIGLVALLGNLEDKSALGSSMAVALITTLYGTIMANLMFTPVQLKLEKIDTEEAAVKTMIIEGVLSIQSGDNPRILEQKLMTFLTPKDRSQLNSSIGGE	failed
MNLDAPRVLVLNAAYEVLGLASIKRAVLLVLGGGAEMVSESGLYLNTPSTRIPVPSVVRLKRMVRRRPGRVPLNRRNVLRRDRYTCQYCGQKGGELTVDHVLPKSRGGKSTWDNLVAACRSCNLRKGDRTPEEAGMRLLRPPKPPRVPLFLLDLKEVPPDWRPFVEGLLGLEHHHHHH	not failed
MNLDHLYPFGFRSTLFDRLTPEYEDLKGLSIHQLRESVARDLEDLLNSRVAKMDDVLVNYPLARQSILQFGIIDFVGLSTANPMDREKICQSIEQSIAAHEPRLKQVKVEMLLDGHNMGALCLSIQAYLNIHPLYEPVVFDALLKPTTQQYVISAQT	failed
MNLEPLRKRVRQYLDQQQYQSALFWADKVASLSHEEPQDVYWLAQCLYLTAQYHRAAHALRSRKLDKLYEACRYLAARCHYAAKEHQQALDILDMEEPINRRLFEKYLKDDNGSRDPSSDWEMSQSSIKSSICLLRGKIYDALDNRTLATYSYKEALKLDVYCFEAFDLLTSHHMLTAQEEKELLDSLPLNKLCAEEQELLRFVFENKLKKYNKPSETVIPESVDGLQENLDVVVSLAERHYYNCDFKMCYKLTSTVMEKDPFHANCLPVHIGTLVELNKANELFYLSHKLVDLYPSNPVSWFAVGCYYLMVGHKNEHARRYLSKATTLEKTYGPAWIAYGHSFAVESEHDQAMAAYFTAAQLMKGCHLPMLYIGLEYGLTNNSKLAERFFGQALSIAPEDPFVIHEVGVVAFQNGEWKTAEKWFLDALEKIKAIGNEVTVDKWEPLLNNLGHVCRKLKKYAEALDYHRQALVLIPQNASTYSAIGYIHSLMGNFENAVDYFHTALGLRRDDTFSVTMLGHCIEMYIGDSEAYIGADIKDKLKCYDFDVHTMKTLKNIISPPWDFRDFEVEKQNTEEAGLAPLQNSTKAPESRPNLEETFEIEMNESDMMLETSMSDHST	failed
MNLESKWLEDFSALAATRSFSQAAERRFVTQPAFSRRIRSLEAALGLVLVNRSRTPVELTAAGQLFLVTARTVVEQLGEVVRHLHHLEGGQGEVMQVAAAHSLALGFFPRWIAQLRNEGLNIATRLVATNVGDAVHALREGGCDLMLAFYDPDAALQMDAEIFPSLHLGHTEMLPVCAADAEGRPLFDMEGEASVPLLAYSTGAFLGRSVNLLLRQRNLRFTTVYETAMADSLKSMALEGLGIAWVPQLSVRAELARGELVVCGGPQWHVPLEIRLYRCALVRKANVRLLWRKLESAAPPESL	failed

Source: a protein production outcome set (Wang et al. 2014)
